In article PMC3733929, “Analysis of Mutations in Neurospora crassa ERMES Components Reveals Specific Functions Related to β-Barrel Protein Assembly and Maintenance of Mitochondrial Morphology” (PLoS ONE, 2013):

Target: the molecule itself
Experiment: non-reducing SDS-PAGE and Western blot; isolated mitochondria dissolved in cracking buffer (0.06 M Tris-HCl pH 6.8, 2.5% SDS, 5% sucrose) without β-mercaptoethanol; anti-HA blot; disulphide-bonded form at about 100 kDa

B1: Mmm1-HA (N. crassa Mmm1 with a C-terminal triple hemaglutinin epitope tag) (natural protein, Neurospora crassa, UniProt Q9P353 1-415, looked up)
chain: MADICPSRSEPTLSFTQGLILGQLSVVLLLAAFIKFFIFGDPPSPEVVASIRATDRRSRTLAHKKSILSLRETNALQLVQNPALNKKHVLRPGPPILTIGSILSKTYYKVDSHQPESLDWFNVLIAQTIAQFRSDAQHDDAILSSLSKALNGTARPDFLDEIKVTELSLGEDFPIFSNCRIIPVDEDGLSFGTGKAFDANMATREGARLQARMDVDLSDMITLAVETKLLLNYPKRLSAVLPVALAVSVVRFSGTLSISFIPSNPSNNEPAKMIFTFLDDYRLDFSIRSLLGSRSRLQDVPKIAQLVESRLHRWFDERCVEPRFQEIALPNMWPRKKNTRGGDETISDVERSMSKAKGVDIAKDVREEARKEIEAEAHGGADRVPDSLRYRHRPRADEEFPGAGSMPGSMPGSMP
notes: Mmm1, Neurospora crassa; also called HA-tagged Mmm1; Mmm1-HA3; source: N. crassa Δmmm1 transformed with pMmm1-HA (endogenous mmm1 promoter; strains Mmm1-HA3, Mmm1-HA5, Mmm1-HA8), in isolated mitochondria or post mitochondrial pellet; not shown: 3xHA, C-terminal, kept
- stoichiometry N: 2
